{"source": "paper PMC10540216", "about": "“Activity Guided Azide-methyllysine Photo-trapping for Substrate Profiling of Lysine Demethylases” (Journal of the American Chemical Society, 2023)", "tested_on": "KDM4A-I71AzF", "assay": "CASI: photo-crosslinking with HEK293T cell extracts, StrepTactin enrichment and LC-MS/MS proteomics;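 also: lysates from HEK293T cells pretreated with a KDM4 inhibitor to raise proteome methylation, affinity-purified after ±UV, gel-resolved, trypsin-digested, with exclusive unique peptides per protein averaged per condition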", "type": "binding, human", "conditions": "sheet \"Final results but with 0.01\"", "data": [{"molecule": "PDC6I_HUMAN (protein, UniProt Q8WUM4 2-868, looked up) Programmed cell death …: ATFISVQLKKTSEVDLAKPLVKFIQQTYPSGGEEQAQYCRAAEELSKLRRAAVGRPLDKHEGALETLLRYYDQICSIEPKFPFSENQICLTFTWKDAFDKGSLFGGSVKLALASLGYEKSCVLFNCAALASQIAAEQNLDNDEGLKIAAKHYQFASGAFLHIKETVLSALSREPTVDISPDTVGTLSLIMLAQAQEVFFLKATRDKMKDAIIAKLANQAADYFGDAFKQCQYKDTLPKEVFPVLAAKHCIMQANAEYHQSILAKQQKKFGEEIARLQHAAELIKTVASRYDEYVNVKDFSDKINRALAAAKKDNDFIYHDRVPDLKDLDPIGKATLVKSTPVNVPISQKFTDLFEKMVPVSVQQSLAAYNQRKADLVNRSIAQMREATTLANGVLASLNLPAAIEDVSGDTVPQSILTKSRSVIEQGGIQTVDQLIKELPELLQRNREILDESLRLLDEEEATDNDLRAKFKERWQRTPSNELYKPLRAEGTNFRTVLDKAVQADGQVKECYQSHRDTIVLLCKPEPELNAAIPSANPAKTMQGSEVVNVLKSLLSNLDEVKKEREGLENDLKSVNFDMTSKFLTALAQDGVINEEALSVTELDRVYGGLTTKVQESLKKQEGLLKNIQVSHQEFSKMKQSNNEANLREEVLKNLATAYDNFVELVANLKEGTKFYNELTEILVRFQNKCSDIVFARKTERDELLKDLQQSIAREPSAPSIPTPAYQSSPAGGHAPTPPTPAPRTMPPTKPQPPARPPPPVLPANRAPSATAPSPVGAGTAAPAPSQTPGSAPPPQAQGPPYPTYPGYPGYCQMPMPMGYNPYAYGQYNMPYPPVYHQSPGQAPYPGPQQPSYPFPQPPQQSYYPQQ", "values": [{"measurement": "Fold change (+UV/-UV)", "result": 200}]}, {"molecule": "CKAP4_HUMAN (protein, UniProt Q07065 1-602, looked up) Cytoskeleton-associated …: MPSAKQRGSKGGHGAASPSEKGAHPSGGADDVAKKPPPAPQQPPPPPAPHPQQHPQQHPQNQAHGKGGHRGGGGGGGKSSSSSSASAAAAAAAASSSASCSRRLGRALNFLFYLALVAAAAFSGWCVHHVLEEVQQVRRSHQDFSRQREELGQGLQGVEQKVQSLQATFGTFESILRSSQHKQDLTEKAVKQGESEVSRISEVLQKLQNEILKDLSDGIHVVKDARERDFTSLENTVEERLTELTKSINDNIAIFTEVQKRSQKEINDMKAKVASLEESEGNKQDLKALKEAVKEIQTSAKSREWDMEALRSTLQTMESDIYTEVRELVSLKQEQQAFKEAADTERLALQALTEKLLRSEESVSRLPEEIRRLEEELRQLKSDSHGPKEDGGFRHSEAFEALQQKSQGLDSRLQHVEDGVLSMQVASARQTESLESLLSKSQEHEQRLAALQGRLEGLGSSEADQDGLASTVRSLGETQLVLYGDVEELKRSVGELPSTVESLQKVQEQVHTLLSQDQAQAARLPPQDFLDRLSSLDNLKASVSQVEADLKMLRTAVDSLVAYSVKIETNENNLESAKGLLDDLRNDLDRLFVKVEKIHEKV", "values": [{"measurement": "Fold change (+UV/-UV)", "result": 200}]}, {"molecule": "HNRPQ_HUMAN (protein, UniProt O60506 2-623, looked up) Heterogeneous nuclear …: ATEHVNGNGTEEPMDTTSAVIHSENFQTLLDAGLPQKVAEKLDEIYVAGLVAHSDLDERAIEALKEFNEDGALAVLQQFKDSDLSHVQNKSAFLCGVMKTYRQREKQGTKVADSSKGPDEAKIKALLERTGYTLDVTTGQRKYGGPPPDSVYSGQQPSVGTEIFVGKIPRDLFEDELVPLFEKAGPIWDLRLMMDPLTGLNRGYAFVTFCTKEAAQEAVKLYNNHEIRSGKHIGVCISVANNRLFVGSIPKSKTKEQILEEFSKVTEGLTDVILYHQPDDKKKNRGFCFLEYEDHKTAAQARRRLMSGKVKVWGNVGTVEWADPIEDPDPEVMAKVKVLFVRNLANTVTEEILEKAFSQFGKLERVKKLKDYAFIHFDERDGAVKAMEEMNGKDLEGENIEIVFAKPPDQKRKERKAQRQAAKNQMYDDYYYYGPPHMPPPTRGRGRGGRGGYGYPPDYYGYEDYYDYYGYDYHNYRGGYEDPYYGYEDFQVGARGRGGRGARGAAPSRGRGAAPPRGRAGYSQRGGPGSARGVRGARGGAQQQRGRGVRGARGGRGGNVGGKRKADGYNQPDSKRRQTNNQNWGSQPIAQQPLQGGDHSGNYGYKSENQEFYQDTFGQQWK", "values": [{"measurement": "Fold change (+UV/-UV)", "result": 200}]}, {"molecule": "MPP6_HUMAN (protein, UniProt Q99547 1-160, looked up) M-phase phosphoprotein 6: MAAERKTRLSKNLLRMKFMQRGLDSETKKQLEEEEKKIISEEHWYLDLPELKEKESFIIEEQSFLLCEDLLYGRMSFRGFNPEVEKLMLQMNAKHKAEEVEDETVELDVSDEEMARRYETLVGTIGKKFARKRDHANYEEDENGDITPIKAKKMFLKPQD", "values": [{"measurement": "Fold change (+UV/-UV)", "result": 200}]}, {"molecule": "KT33A_HUMAN (protein, UniProt O76009 1-404, looked up) Keratin, type I cuticular …: MSYSCGLPSLSCRTSCSSRPCVPPSCHGCTLPGACNIPANVSNCNWFCEGSFNGSEKETMQFLNDRLASYLEKVRQLERDNAELENLIRERSQQQEPLVCASYQSYFKTIEELQQKILCSKSENARLVVQIDNAKLASDDFRTKYETELSLRQLVESDINGLRRILDELTLCRSDLEAQVESLKEELLCLKQNHEQEVNTLRCQLGDRLNVEVDAAPTVDLNQVLNETRSQYEALVETNRREVEQWFATQTEELNKQVVSSSEQLQSYQAEIIELRRTVNALEIELQAQHNLRDSLENTLTESEARYSSQLSQVQRLITNVESQLAEIRSDLERQNQEYQVLLDVRARLECEINTYRSLLESEDCKLPSNPCATTNACDKSTGPCISNPCGLRARCGPCNTFGY", "values": [{"measurement": "Fold change (+UV/-UV)", "result": 300}]}, {"molecule": "ADAS_HUMAN (protein, UniProt O00116 59-658, looked up) Alkyldihydroxyacetonephosphate …: KARRAASAATAAPTATPAAQESGTIPKKRQEVMKWNGWGYNDSKFIFNKKGQIELTGKRYPLSGMGLPTFKEWIQNTLGVNVEHKTTSKASLNPSDTPPSVVNEDFLHDLKETNISYSQEADDRVFRAHGHCLHEIFLLREGMFERIPDIVLWPTCHDDVVKIVNLACKYNLCIIPIGGGTSVSYGLMCPADETRTIISLDTSQMNRILWVDENNLTAHVEAGITGQELERQLKESGYCTGHEPDSLEFSTVGGWVSTRASGMKKNIYGNIEDLVVHIKMVTPRGIIEKSCQGPRMSTGPDIHHFIMGSEGTLGVITEATIKIRPVPEYQKYGSVAFPNFEQGVACLREIAKQRCAPASIRLMDNKQFQFGHALKPQVSSIFTSFLDGLKKFYITKFKGFDPNQLSVATLLFEGDREKVLQHEKQVYDIAAKFGGLAAGEDNGQRGYLLTYVIAYIRDLALEYYVLGESFETSAPWDRVVDLCRNVKERITRECKEKGVQFAPFSTCRVTQTYDAGACIYFYFAFNYRGISDPLTVFEQTEAAAREEILANGGSLSHHHGVGKLRKQWLKESISDVGFGMLKSVKEYVDPNNIFGNRNLL", "values": [{"measurement": "Fold change (+UV/-UV)", "result": 200}]}, {"molecule": "K1H1_HUMAN (protein, UniProt Q15323 1-416, looked up) Keratin, type I cuticular Ha1: MPYNFCLPSLSCRTSCSSRPCVPPSCHSCTLPGACNIPANVSNCNWFCEGSFNGSEKETMQFLNDRLASYLEKVRQLERDNAELENLIRERSQQQEPLLCPSYQSYFKTIEELQQKILCTKSENARLVVQIDNAKLAADDFRTKYQTELSLRQLVESDINGLRRILDELTLCKSDLEAQVESLKEELLCLKSNHEQEVNTLRCQLGDRLNVEVDAAPTVDLNRVLNETRSQYEALVETNRREVEQWFTTQTEELNKQVVSSSEQLQSYQAEIIELRRTVNALEIELQAQHNLRDSLENTLTESEARYSSQLSQVQSLITNVESQLAEIRSDLERQNQEYQVLLDVRARLECEINTYRSLLESEDCNLPSNPCATTNACSKPIGPCLSNPCTSCVPPAPCTPCAPRPRCGPCNSFVR", "values": [{"measurement": "Fold change (+UV/-UV)", "result": 800}]}]}
